Measured values from the RNAGym collection of RNA variant scans (doi:10.7554/elife.80360).

B1: HDV Ribozyme (parent)
chain: GGCCGGCAUGGUCCCAGCCUCCUCGCUGGCGCCGGCUGGGCAACAUUCCGAGGGGACCGUCCCCUCGGUAAUGGCGAAUGGGACCCA

Variants of: B1
Test: self-cleavage, relative activity (ratio to wild type); higher = more cleavage; co-transcriptional

Variant	self-cleavage
C4A U72G	0.111
C4A U72A	0.0723
C4G G81U	0.0554
C4G G81C	0.0767
C4G C22U	0.0449
C4G C22A	0.142
C4A C66A	0.177
G5A A8C	0.0519
G5A A8U	0.151
G5A A8G	0.0692
C4G G6U	0.0237
C4G G6A	0
C4U A42G	0.138
C4U A42C	0.0475
C4G G40C	0.128
C4G G40U	0.381
C4G C64A	0.219
C4G C63G	0.0396
C4G C63A	0.177
C4G C63U	0.249
C4G C48A	0.59
C4G C48U	0.306
C4G C48G	0.485
C4U C21U	0.0678

Variant	self-cleavage
C4A G10U	0.0733
C4G G54C	0.213
C4U U69A	0.623
C4U A77G	0.578
C4G C61U	0.475
C4U A70U	0.554
C4A G35A	0.0733
C4G C49U	0.612
C4G C49G	0.504
C4A G38A	0.133
C4G A51C	0.458
C4G A51U	0.284
C4U C36G	0.0707
C4U C36A	0
C4U C36U	0.272
C4A C49A	0.424
C4A C49U	0.282
C4A G74U	0.0583
C4A G50U	0.372
C4U U20A	0.0554
C4U U20C	0.0437
C4U U20G	0
C4U C63G	0.396
C4U C63U	0.682

Variant	self-cleavage
C4G G39U	0.0346
C4U A16C	0.434
C4A C75G	0.0396
C4G A70G	0.59
C4A G39C	0
C4A G39A	0.119
C4U G5A	0.185
C4U G5U	0.237
C4A C63A	0.354
C4A G28A	0.0489
C4A G28U	0.0692
C4A C86U	0.284
C4U G11A	0.225
C4U G11C	0
C4G G34C	0.782
C4G U65A	0.525
C4G G31U	0.0282
C4G G31A	0.0639
C4U C85G	0.935
C4U C85U	0.665
C4G U79C	0.13
C4G U79A	0.0536
C4G U79G	0
C4A C57A	0.541

Variant	self-cleavage
C4A C57U	0.237
C4A G54A	0.268
C4A G54U	0.32
C4A G54C	0.284
C4G U20A	0.0536
C4G U20G	0
C4U G40A	0.604
C4U G40C	0.128
C4G C33A	0
C4G C33G	0.0583
C4G G59C	0.481
C4U C41U	0.567
C4U C7G	0
C4G C15A	0.142
C4G C15U	0.277
C4G G5U	0.0545
C4G G5A	0.0519
C4A U65G	0.26
C4A U65C	0.567
C4U G10C	0.63
C4A U47A	0.156
C4A U47C	0.293
C4A U37G	0
C4U C14U	1.04

Variant	self-cleavage
C4U C14A	0.519
C4U U60C	0.872
C4G U69A	0.192
C4G C62G	0.123
G5A A42G	0
G5A A42C	0.135
G5A A42U	0.111
C4A G34C	0.261
C4A G34A	0.284
C4A G59C	0.302
C4A G59A	0.346
C4A U60G	0.0449
C4A U60A	0.284
C4A U60C	0.344
C4U G73U	0.138
C4U G73C	0.242
C4U C26U	0.764
C4A G31U	0
C4U C22G	0.111
G5A A16C	0.166
G5A A16U	0.356
C4U U65C	1.06
C4U U65A	0.727
C4U U65G	0.656

Variant	self-cleavage
C4G U12G	0.18
C4G U12C	0.0665
C4G C36A	0.0241
C4U U46C	0.403
C4A U20C	0.214
C4A U23C	0.0978
C4A U23A	0.309
C4U C75G	0.122
C4U U23G	0.302
C4U U23A	0.727
C4G G55U	0.376
C4G G55C	0.185
C4U G29U	0.0302
C4G G80C	0.0906
C4G G80U	0.0953
C4G G80A	0.0203
C4G G38A	0
C4G G38U	0.0287
C4U A56C	0.522
G5A A43G	0.131
G5A A43C	0.0594
C4G A77G	0.172
C4U A87C	0.708
C4G C66A	0.369

Variant	self-cleavage
C4G C66U	0.445
C4G A43G	0
C4G A43C	0.0519
C4U A8C	0.443
C4U A78G	0.375
C4U A78U	0.155
C4G U46A	0.0573
C4G C44G	0.0449
C4U C33G	0
C4U C33U	0.612
C4G C21A	0.0292
C4G C21U	0
C4U U72C	0.554
C4U U72A	0.415
C4U C24A	0.0583
C4U C24G	0.0678
C4G C41A	0.162
C4G C41U	0.289
C4A G76A	0.208
C4A G76C	0.253
C4A G76U	0.554
C4U U12G	0.465
C4A G68A	0.196
